Key:
Assay in all cases: HMF sulfoconjugation assay
Settings in all cases: other: catalytic efficiency of HMF sulfoconjugation; pH 7.4
O=Cc1ccc(CO)o1 [1] = tested on: T1, O=Cc1ccc(CO)o1; assay type: biochemical, human
T1 construct: made in house; host or cells: Salmonella typhimurium TA1538 (cytosolic fraction, not purified)
Procedure: (§1) Cytosolic fractions containing individual SULT forms were prepared from transgenic S. typhimurium TA1538. Table S1 in the Supplementary Material provides a summary of the thirty SULTs used in the current study together with references describing the cloning of the respective S. typhimurium TA1538 strains. The expressed SULT forms are denoted with the prefixes h, m and r for human, mouse and rat enzymes, respectively. Bacteria were grown in Luria Broth medium containing ampicillin (100 µg/ml) by stirring for 8 h at 200 revolutions/min at 37 °C. The bacterial suspensions were centrifuged at 5,000 g for 10 min. […] The protein concentrations were determined according to a bicinchoninic acid (BCA) assay protocol. […]
(§2) The reactions were conducted in mixtures of 100 µl containing 25–200 µg protein, 50 mM potassium phosphate buffer (pH 7.4), 5 mM MgCl2, 50 µM PAPS and different concentrations of HMF at 37 °C. Preliminary experiments ensured that measurements were recorded under ‘linear’ conditions, i.e., doubling of protein concentration or incubation time was doubling the amount of sulfate ester formed. […]
(§3) SMF concentrations of the clear supernatants were analyzed by UPLC-MS/MS. The protocol was adapted from the quantification of SMF in plasma samples of HMF-treated mice (Monien et al. [2009]). […]

O=Cc1ccc(CO)o1 [2] = tested on: T2, O=Cc1ccc(CO)o1; assay type: biochemical, mouse
T2 construct: made in house; host or cells: Salmonella typhimurium TA1538 (cytosolic fraction, enzyme not purified)
Procedure: as §1, §2, §3

O=Cc1ccc(CO)o1 [3] = tested on: T2, O=Cc1ccc(CO)o1; assay type: biochemical, rat
Procedure: as §1, §2, §3

hSULT1B1 (Homo sapiens), sequence (chain, as listed by the source): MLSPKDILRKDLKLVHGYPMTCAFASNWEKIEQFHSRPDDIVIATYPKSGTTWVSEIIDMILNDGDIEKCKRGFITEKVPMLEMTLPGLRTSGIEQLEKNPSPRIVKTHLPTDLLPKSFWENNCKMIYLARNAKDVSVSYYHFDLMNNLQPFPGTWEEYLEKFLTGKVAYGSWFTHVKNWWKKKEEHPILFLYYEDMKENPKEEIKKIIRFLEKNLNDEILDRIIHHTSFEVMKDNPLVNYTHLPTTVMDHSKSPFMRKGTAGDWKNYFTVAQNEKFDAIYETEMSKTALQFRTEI
rSult1b1 (Rattus norvegicus), sequence (chain, as listed by the source): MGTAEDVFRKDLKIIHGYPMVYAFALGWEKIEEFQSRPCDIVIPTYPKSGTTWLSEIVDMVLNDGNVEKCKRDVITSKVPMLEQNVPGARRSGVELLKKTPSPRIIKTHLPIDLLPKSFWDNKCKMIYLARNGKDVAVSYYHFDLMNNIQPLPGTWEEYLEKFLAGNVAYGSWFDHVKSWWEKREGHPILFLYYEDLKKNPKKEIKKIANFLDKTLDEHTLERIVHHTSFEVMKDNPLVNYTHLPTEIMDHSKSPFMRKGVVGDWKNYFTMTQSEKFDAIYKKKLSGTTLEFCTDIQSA
mSult1b1 (Mus musculus), sequence (chain, as listed by the source): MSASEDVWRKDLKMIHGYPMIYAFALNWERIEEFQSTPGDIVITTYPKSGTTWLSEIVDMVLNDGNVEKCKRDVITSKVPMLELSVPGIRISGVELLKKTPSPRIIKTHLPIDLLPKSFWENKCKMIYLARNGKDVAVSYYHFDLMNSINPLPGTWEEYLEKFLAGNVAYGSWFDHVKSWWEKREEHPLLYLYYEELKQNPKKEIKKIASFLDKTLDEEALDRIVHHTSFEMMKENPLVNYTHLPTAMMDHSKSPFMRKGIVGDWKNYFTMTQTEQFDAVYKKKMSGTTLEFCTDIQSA

hSULT1B1 (Homo sapiens)
kcat/Km (O=Cc1ccc(CO)o1 [1]): 0.31 M⁻¹ s⁻¹

mSult1b1 (Mus musculus)
kcat/Km (O=Cc1ccc(CO)o1 [2]): 0.36 M⁻¹ s⁻¹

rSult1b1 (Rattus norvegicus)
kcat/Km (O=Cc1ccc(CO)o1 [3]): 0.09 M⁻¹ s⁻¹

Source: publication PMC4710668, “Bioactivation of food genotoxicants 5-hydroxymethylfurfural and furfuryl alcohol by sulfotransferases from human, mouse and rat: a comparative study” (Archives of Toxicology, 2014)
